Source: article PMC11217292

Target: OSM-3 H207Q mutant, EGFP tagged (C. elegans) (UniProt P46873)
Chain of UniProt P46873 (P46873 whole entry H207Q): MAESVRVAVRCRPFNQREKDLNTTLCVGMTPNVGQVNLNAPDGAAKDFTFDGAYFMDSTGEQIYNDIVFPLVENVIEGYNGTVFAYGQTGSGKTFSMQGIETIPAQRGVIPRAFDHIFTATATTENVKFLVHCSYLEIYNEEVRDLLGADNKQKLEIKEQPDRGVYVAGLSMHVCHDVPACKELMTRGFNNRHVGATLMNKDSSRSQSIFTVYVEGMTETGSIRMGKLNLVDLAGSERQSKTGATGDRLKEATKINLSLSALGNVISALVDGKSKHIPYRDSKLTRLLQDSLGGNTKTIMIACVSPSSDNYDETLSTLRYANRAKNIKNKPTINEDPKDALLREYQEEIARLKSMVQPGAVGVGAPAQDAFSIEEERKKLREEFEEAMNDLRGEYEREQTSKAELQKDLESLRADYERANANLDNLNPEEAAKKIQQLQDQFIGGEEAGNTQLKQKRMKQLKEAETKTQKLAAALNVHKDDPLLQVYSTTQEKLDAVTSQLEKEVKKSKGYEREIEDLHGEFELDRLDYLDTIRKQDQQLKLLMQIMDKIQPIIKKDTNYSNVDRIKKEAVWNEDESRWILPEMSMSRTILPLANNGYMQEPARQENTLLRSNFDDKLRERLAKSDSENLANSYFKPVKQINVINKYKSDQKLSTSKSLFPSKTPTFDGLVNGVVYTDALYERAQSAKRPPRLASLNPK

microtubules (complex)
microtubule-stimulated ATPase activity relative to wild-type OSM-3 (set to 100%): 18%
